Test results as given in the RNAGym collection of RNA variant scans (doi:10.7554/elife.80360).

B1: CPEB3 Ribozyme (parent)
chain: GGGGGCCACAGCAGAAGCGUUCACGUCGCGGCCCCUGUCAGAUUCUGGUGAAUCUGCGAAUUCUGCUGU

Variants of: B1
Assay: self-cleavage, relative activity (ratio to wild type); higher = more cleavage; co-transcriptional

Variant	self-cleavage
GGGGGCCACAGCAGAAGCGUUCACGUCGCGGUCCCUGUCAGAUUCUGGUGAAUCGGCGAAUUCUGCUGU [C32U U55G]	0.896
GGGGGCCACAGCAGAAGCGUUCACGUCGCGGUCCCUGUCAGAUUCUGGUGAAUCAGCGAAUUCUGCUGU [C32U U55A]	0.989
GGGGGCCACAGCAGAAGCGUUCACGUCGCGGUCCCUGUCAGAUUCUGGUGAAUCUGCGAAUUCUCCUGU [C32U G65C]	0.778
GGGGGCCACAGCAGAAGCGUUCACGUCGCGGUCCCUGUCAGAUUCUGGUGAAUCUGCGAAUUCUACUGU [C32U G65A]	0.988
GGGGGCCACAGCAGAAGCGUUCACGUCGCGGUCCCUGUCAGAUUCUGGUGAAUCUUCGAAUUCUGCUGU [C32U G56U]	0.971
GGGGGCCACAGCAGAAGCGUUCACGUCGCGGUCCCUGUCAGAUUCUGGUGAAUCUACGAAUUCUGCUGU [C32U G56A]	0.94
GGGGGCCACAGCAGAAGCGUUCACGUCGCGGUCCCUGUCAGAUUCUGGUGAAUCUGCAAAUUCUGCUGU [C32U G58A]	0.983
GGGGGCCACAGCAGAAGCGUUCACGUCGCGGUCCCUGUCAGAUUCUGGUGAAUUUGCGAAUUCUGCUGU [C32U C54U]	0.966
GGGGGCCACAGCAGAAGCGUUCACGUCGCGGUCCCUGUCAGAUUCUGGUGAAUAUGCGAAUUCUGCUGU [C32U C54A]	0.861
GGGGGCCACAGCAGAAGCGUUCACGUCGCGGUCCCUGUCAGAUUCUGGAGAAUCUGCGAAUUCUGCUGU [C32U U49A]	1.01
GGGGGCCACAGCAGAAGCGUUCACGUCGCGGUCCCUUUCAGAUUCUGGUGAAUCUGCGAAUUCUGCUGU [C32U G37U]	0.292
GGGGGCCACAGCAGAAGCGUUCACGUCGCGGUCCCUGUCAAAUUCUGGUGAAUCUGCGAAUUCUGCUGU [C32U G41A]	0.845
GGGGGCCACAGCAGAAGCGUUCACGUCGCGGUCCCUGUCAGAUUCUUGUGAAUCUGCGAAUUCUGCUGU [C32U G47U]	1.01
GGGGGCCACAGCAGAAGCGUUCACGUCGCGGUCCCUGUCAGAUUCUGGUGAAUCUGCGAAUUUUGCUGU [C32U C63U]	0.956
GGGGGCCACAGCAGAAGCGUUCACGUCGCGGUCCCUGUCAGAUUCUGGUGAAUCUGCGAAUUAUGCUGU [C32U C63A]	0.886
GGGGGCCACAGCAGAAGCGUUCACGUCGCGGUCCCUGUCAGAUUCUGGUGAAUCUGUGAAUUCUGCUGU [C32U C57U]	0.327
GGGGGCCACAGCAGAAGCGUUCACGUCGCGGUCCCUGUCAGAUUCUGGUGAAUCUGGGAAUUCUGCUGU [C32U C57G]	0.335
GGGGGCCACAGCAGAAGCGUUCACGUCGCGGUCCCUGUCAGAUUCUGGUGAAUCUGCGAAUUCUGCUCU [C32U G68C]	1.02
GGGGGCCACAGCAGAAGCGUUCACGUCGCGGUCCCUGUCAGAUUCUGGUGAAUCUGCGAAUUCUGCUAU [C32U G68A]	0.977
GGGGGCCACAGCAGAAGCGUUCACGUCGCGGUCCCUGUCAGAUUCUGGUGAAUCUGCGAAUUCUGCUUU [C32U G68U]	1.02

Variant	self-cleavage
GGGGGCCACAGCAGAAGCGUUCACGUCGCGGUCCCUGCCAGAUUCUGGUGAAUCUGCGAAUUCUGCUGU [C32U U38C]	0.955
GGGGGCCACAGCAGAAGCGUUCACGUCGCGGUCCCUGUCAGAUUCUGGUGAAACUGCGAAUUCUGCUGU [C32U U53A]	0.982
GGGGGCCACAGCAGAAGCGUUCACGUCGCGGUCCCUGUCAGAUUCUGGUGAAGCUGCGAAUUCUGCUGU [C32U U53G]	0.967
GGGGGCCACAGCAGAAGCGUUCACGUCGCGGUCCCUGUCAGAUACUGGUGAAUCUGCGAAUUCUGCUGU [C32U U44A]	0.948
GGGGGCCACAGCAGAAGCGUUCACGUCGCGGUCCCUGUCAGAUUCAGGUGAAUCUGCGAAUUCUGCUGU [C32U U46A]	1
GGGGGCCACAGCAGAAGCGUUCACGUCGCGGUCCCUGUCAGAUUCGGGUGAAUCUGCGAAUUCUGCUGU [C32U U46G]	0.951
GGGGGCCACAGCAGAAGCGUUCACGUCGCGGUCCCUGUCAGAUUCCGGUGAAUCUGCGAAUUCUGCUGU [C32U U46C]	1
GGGGGCCACAGCAGAAGCGUUCACGUCGCGGUCCCGGUCAGAUUCUGGUGAAUCUGCGAAUUCUGCUGU [C32U U36G]	0.297
GGGGGCCACAGCAGAAGCGUUCACGUCGCGGUCCCUGUCAGAUUAUGGUGAAUCUGCGAAUUCUGCUGU [C32U C45A]	0.983
GGGGGCCACAGCAGAAGCGUUCACGUCGCGGUCCCUGUCAGAUUUUGGUGAAUCUGCGAAUUCUGCUGU [C32U C45U]	1.01
GGGGGCCACAGCAGAAGCGUUCACGUCGCGGUCCCUGUCAGAUUGUGGUGAAUCUGCGAAUUCUGCUGU [C32U C45G]	0.975
GGGGGCCACAGCAGAAGCGUUCACGUCGCGGUCCCUGUCAGAGUCUGGUGAAUCUGCGAAUUCUGCUGU [C32U U43G]	0.963
GGGGGCCACAGCAGAAGCGUUCACGUCGCGGUCCCUGUCAGAAUCUGGUGAAUCUGCGAAUUCUGCUGU [C32U U43A]	0.933
GGGGGCCACAGCAGAAGCGUUCACGUCGCGGUCCCUGUCAGACUCUGGUGAAUCUGCGAAUUCUGCUGU [C32U U43C]	0.947
GGGGGCCACAGCAGAAGCGUUCACGUCGCGGUCCCUGUCAGAUUCUGGUAAAUCUGCGAAUUCUGCUGU [C32U G50A]	0.995
GGGGGCCACAGCAGAAGCGUUCACGUCGCGGUCCCUGUCAGAUUCUGGUUAAUCUGCGAAUUCUGCUGU [C32U G50U]	0.978
GGGGGCCACAGCAGAAGCGUUCACGUCGCGGUCCCUGUCAGAUUCUGGUGAAUCUGCGAAUUCUGAUGU [C32U C66A]	0.893
GGGGGCCACAGCAGAAGCGUUCACGUCGCGGUCCCUGUCAGAUUCUGGUGAAUCUGCGAAUUCUGUUGU [C32U C66U]	1
GGGGGCCACAGCAGAAGCGUUCACGUCGCGGUCCCUGUCAGAUUCUGGUGAAUCUGCGAAUUCUGGUGU [C32U C66G]	0.923
